These results are taken from patent US20230012273A1.

Experiment [1] addresses ED-tagged human SIRPα V2 receptor on Jurkat signaling reporter cells (human) (UniProt P78324). Briefly: cell-based or functional assay.
In experiment [2] the target is ED-tagged human SIRPα V1 receptor on Jurkat signaling reporter cells (human) (UniProt P78324). Nature of the experiment: cell-based or functional assay.
Chain of ED-tagged human SIRPα V1 receptor on Jurkat signaling reporter cells (human) (P78324 31-504): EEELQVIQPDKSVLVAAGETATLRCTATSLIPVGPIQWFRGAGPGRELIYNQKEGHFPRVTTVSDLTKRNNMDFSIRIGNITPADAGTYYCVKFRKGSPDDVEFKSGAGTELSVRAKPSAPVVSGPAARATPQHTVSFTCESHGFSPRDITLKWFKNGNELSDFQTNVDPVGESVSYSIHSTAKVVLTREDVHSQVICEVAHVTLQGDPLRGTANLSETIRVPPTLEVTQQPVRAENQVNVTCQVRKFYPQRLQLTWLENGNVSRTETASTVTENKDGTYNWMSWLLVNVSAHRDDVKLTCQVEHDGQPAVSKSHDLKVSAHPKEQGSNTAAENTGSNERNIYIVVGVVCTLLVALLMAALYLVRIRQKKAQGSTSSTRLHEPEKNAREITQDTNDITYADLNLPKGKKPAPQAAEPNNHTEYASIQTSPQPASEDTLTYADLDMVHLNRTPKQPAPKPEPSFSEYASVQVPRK

Chain of Anti-SIRPα antibody KWAR23 (VH): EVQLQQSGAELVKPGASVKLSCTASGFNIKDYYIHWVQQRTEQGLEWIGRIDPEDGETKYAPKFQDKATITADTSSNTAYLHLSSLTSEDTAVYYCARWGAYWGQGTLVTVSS
Chain of Anti-SIRPα antibody KWAR23 (VL): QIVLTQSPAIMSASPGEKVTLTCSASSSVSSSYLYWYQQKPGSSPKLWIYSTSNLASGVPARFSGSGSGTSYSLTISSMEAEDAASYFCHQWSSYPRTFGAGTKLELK
Chain of ED-tagged human SIRPα V2 receptor on Jurkat signaling reporter cells (human) (P78324 31-504): as the sequence (P78324 31-504) above

For the substance Anti-SIRPα antibody KWAR23, the Blockade of Cellular CD47-Mediated SIRPα Signaling; IC50 in experiment [1] and in experiment [2] was 0.04 nM each time.
